Data published in publication PMC9154124.

Target: chimeric H5 Env: Env_(HXB2) with the V3 loop of Env_(SF162) (HIV-1 strain HXB2 | HIV-1 strain SF162) (UniProt P04578)

## Human soluble CD4-183 (sCD4-183) two-domain protein (domain or fragment)
  inhibition by sCD4 of the infectivity of HIV-1 pseudotyped with Env (titration, Fig 3A); loss of potency against H4 Env: > 50 fold
  sCD4-induced gp120 shedding from Env-expressing HEK293T cells (Fig 3B); shift of the sCD4 dependence against H4 Env: > 10 fold
